Tests used:
PFO-PAGE and immunoblot = target: the molecule itself; test: PFO-PAGE and immunoblot
human basigin-2 = target: T1, human basigin-2 (human, UniProt P35613 140-385); test: Sulfo-SBED biotin label transfer on HESC and CCL-2 cells, basigin immunoprecipitation, neutravidin-HRP blot
T1 construct: Endogenous glycosylated protein of HESC uterine fibroblasts and CCL-2 (HeLa) cells, found in the membrane fraction; also called basigin isoform 2; 50 kDa basigin protein
T1 sequence: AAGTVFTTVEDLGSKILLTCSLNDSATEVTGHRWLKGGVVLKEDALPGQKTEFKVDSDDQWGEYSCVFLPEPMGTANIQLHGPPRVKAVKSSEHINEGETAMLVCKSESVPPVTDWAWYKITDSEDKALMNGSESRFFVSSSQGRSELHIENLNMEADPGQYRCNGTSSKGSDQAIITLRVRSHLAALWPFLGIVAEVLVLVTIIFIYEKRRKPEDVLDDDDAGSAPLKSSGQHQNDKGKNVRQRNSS
Description: Biotin label transfer from rBSG to CCL-2 cells (HeLa) was performed by treating cells with increasing concentrations of SEED-labeled rBSG (0, 0.05, 0.5, 5, and 50 μg/ml) for 10 minutes at 37° C. Following 5 minutes of UV light treatment, cells were washed twice with PBS and total cell lysates collected using IP buffer. Proteins from labeled cells were precipitated with either neutravidin beads (FIGS. 7A and 7B) or immunoprecipitated with the P2C2 mAb (FIGS. 7C and 7D). Precipitated proteins were resolved by 15% SDS-PAGE in duplicate, and immunoblotted with either Streptavidin-HRP (FIGS. 7A and 7C) or with the R&D Systems anti-hEMMPRIN pAb (FIGS. 7B and 7D). The Santa Cruz goat anti-rabbit (anti-mouse, anti-human depleted)-HRP secondary antibody used for this experiment was previously shown to not cross-react with the P2C2 mAb. The basigin-2 band is indicated with an arrowhead and the basigin-3/rBSG band is indicated with an arrow. This experiment was performed twice with similar results.
Immunoprecipitation and Immunoblot Analysis. Immunoprecipitation of basigin was performed using the monoclonal antibody P2C2. Ten to […] of antibody added to 1 mg soluble protein was incubated overnight at 4° C. with rocking, and immune complexes were collected on protein G SEPHAROSE beads for 4 hours at 4° C. Immunoprecipitated proteins were resolved by SDS-PAGE using standard methods. […]

B1: recombinant human basigin extracellular domain construct (rBSG) (ligand)
chain: WSHPQFEKAGTVFTTVEDLGSKILLTCSLNDSATEVTGHRWLKGGVVLKEDALPGQKTEFKVDSDDQWGEYSCVFLPEPMGTANIQLHGPPRVKAVKSSEHINEGETAMLVCKSESVPPVTDWAWYKITDSEDKALMNGSESRFFVSSSQGRSELHIENLNMEADPGQYRCNGTSSKGSDQAIITLRVRSHLHHHHHH
notes: also called recombinant basigin; soluble rBSG
Question: Does B1 bind (PFO-PAGE and immunoblot)?
Answer: Result: binds

Question: Does B1 bind (human basigin-2)?
Answer: Result: binds

— patent US20100092494A1 (BOARD OF TRUSTEES OF THE UNIVERSITY OF ILLINOIS, published 2010)
